Patent US20230303711A1

Experiments:
[1] = molecular target: Fc-tagged human CD47-ECD protein (CD47-Fc) (human); test: ELISA on coated human CD47-Fc; row printed as Affinity (µg/mL)
[2] = molecular target: His-tagged human CD47-ECD protein (CD47-His) (human) (UniProt Q08722); test: competitive ELISA on coated CD47-His (2 µg/mL); blocked ligand SIRPα-Fc-Bio (0.1 µg/mL), HRP-streptavidin, OD450
Sequence of His-tagged human CD47-ECD protein (CD47-His) (human) (Q08722 other isoform, or with tags, fused parts or gaps): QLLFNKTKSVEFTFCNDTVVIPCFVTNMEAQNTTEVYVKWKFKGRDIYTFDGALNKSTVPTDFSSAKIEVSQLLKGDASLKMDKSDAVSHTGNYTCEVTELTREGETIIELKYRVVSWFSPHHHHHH

Sequence of Fc-tagged human CD47-ECD protein (CD47-Fc) (human) (chain, as listed by the source limits assumed): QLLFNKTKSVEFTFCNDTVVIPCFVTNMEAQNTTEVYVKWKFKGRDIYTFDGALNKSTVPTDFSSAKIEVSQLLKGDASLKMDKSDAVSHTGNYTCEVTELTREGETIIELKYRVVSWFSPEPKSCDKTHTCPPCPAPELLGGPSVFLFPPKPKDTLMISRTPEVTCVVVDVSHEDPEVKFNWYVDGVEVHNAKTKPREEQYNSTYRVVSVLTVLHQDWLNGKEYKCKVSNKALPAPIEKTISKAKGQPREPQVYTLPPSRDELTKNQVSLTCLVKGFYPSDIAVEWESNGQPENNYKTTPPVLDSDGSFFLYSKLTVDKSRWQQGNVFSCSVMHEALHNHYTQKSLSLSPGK

EC50 [1] [µg/mL]	parameter C of the printed 4-parameter fit (OD does not fall, A 1.192, D 1.394; not an IC50) [2] [µg/mL]	parameter C of the printed 4-parameter fit (OD does not fall, A 1.343, D 8.036; not an IC50) [2] [µg/mL]	parameter C of the printed 4-parameter fit (OD only falls from A 1.633 to D 1.446; not an IC50) [2] [µg/mL]	Substance
0.092				Antibody Hu5F9-G4
	5.76	13400	1.95	IgG (antibody)
